Legend:
WDR6 = target: T1, WDR6 (human, UniProt Q9NNW5 1-1121); test: IP/MS, LZTR1 R810W-FLAG, U87
T1 sequence (looked up): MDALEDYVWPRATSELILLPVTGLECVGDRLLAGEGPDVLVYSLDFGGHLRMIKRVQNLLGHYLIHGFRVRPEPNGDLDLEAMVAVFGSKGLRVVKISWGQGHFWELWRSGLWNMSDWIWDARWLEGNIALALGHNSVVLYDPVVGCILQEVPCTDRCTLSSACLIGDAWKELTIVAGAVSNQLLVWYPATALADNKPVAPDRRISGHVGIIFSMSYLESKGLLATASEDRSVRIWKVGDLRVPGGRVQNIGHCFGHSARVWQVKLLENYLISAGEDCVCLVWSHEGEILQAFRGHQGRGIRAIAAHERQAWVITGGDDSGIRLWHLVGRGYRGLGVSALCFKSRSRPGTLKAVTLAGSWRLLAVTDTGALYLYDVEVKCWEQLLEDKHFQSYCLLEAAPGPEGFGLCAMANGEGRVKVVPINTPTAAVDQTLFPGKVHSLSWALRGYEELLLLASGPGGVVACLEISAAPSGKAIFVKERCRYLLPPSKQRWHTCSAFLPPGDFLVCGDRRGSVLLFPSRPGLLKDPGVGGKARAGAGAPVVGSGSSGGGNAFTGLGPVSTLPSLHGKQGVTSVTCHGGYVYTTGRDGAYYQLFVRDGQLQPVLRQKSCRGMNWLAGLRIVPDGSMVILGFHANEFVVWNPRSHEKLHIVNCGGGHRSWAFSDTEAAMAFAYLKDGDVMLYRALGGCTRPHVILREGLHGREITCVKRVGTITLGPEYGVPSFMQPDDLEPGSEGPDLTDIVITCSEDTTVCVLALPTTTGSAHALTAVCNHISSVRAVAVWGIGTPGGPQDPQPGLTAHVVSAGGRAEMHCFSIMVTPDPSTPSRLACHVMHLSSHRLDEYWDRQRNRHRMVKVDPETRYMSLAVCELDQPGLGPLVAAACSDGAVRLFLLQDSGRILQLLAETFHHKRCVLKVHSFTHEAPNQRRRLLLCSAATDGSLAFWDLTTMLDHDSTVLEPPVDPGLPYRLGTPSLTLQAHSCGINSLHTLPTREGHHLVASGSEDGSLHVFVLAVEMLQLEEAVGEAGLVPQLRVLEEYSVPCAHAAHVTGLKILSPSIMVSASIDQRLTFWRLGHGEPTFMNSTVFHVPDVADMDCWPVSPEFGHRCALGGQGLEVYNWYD
In short: (§1)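 Read-out: spectral counts from LC-MS/MS (Orbitrap Fusion) after MaxQuant identification. Variable modifications were Met oxidation, protein N-terminal acetylation and N/Q deamidation.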

AP4E1 = target: T2, AP4E1 (human, UniProt Q9UPM8 1-1137, limits assumed); test: IP/MS, LZTR1 R810W-FLAG, U87
T2 sequence (looked up): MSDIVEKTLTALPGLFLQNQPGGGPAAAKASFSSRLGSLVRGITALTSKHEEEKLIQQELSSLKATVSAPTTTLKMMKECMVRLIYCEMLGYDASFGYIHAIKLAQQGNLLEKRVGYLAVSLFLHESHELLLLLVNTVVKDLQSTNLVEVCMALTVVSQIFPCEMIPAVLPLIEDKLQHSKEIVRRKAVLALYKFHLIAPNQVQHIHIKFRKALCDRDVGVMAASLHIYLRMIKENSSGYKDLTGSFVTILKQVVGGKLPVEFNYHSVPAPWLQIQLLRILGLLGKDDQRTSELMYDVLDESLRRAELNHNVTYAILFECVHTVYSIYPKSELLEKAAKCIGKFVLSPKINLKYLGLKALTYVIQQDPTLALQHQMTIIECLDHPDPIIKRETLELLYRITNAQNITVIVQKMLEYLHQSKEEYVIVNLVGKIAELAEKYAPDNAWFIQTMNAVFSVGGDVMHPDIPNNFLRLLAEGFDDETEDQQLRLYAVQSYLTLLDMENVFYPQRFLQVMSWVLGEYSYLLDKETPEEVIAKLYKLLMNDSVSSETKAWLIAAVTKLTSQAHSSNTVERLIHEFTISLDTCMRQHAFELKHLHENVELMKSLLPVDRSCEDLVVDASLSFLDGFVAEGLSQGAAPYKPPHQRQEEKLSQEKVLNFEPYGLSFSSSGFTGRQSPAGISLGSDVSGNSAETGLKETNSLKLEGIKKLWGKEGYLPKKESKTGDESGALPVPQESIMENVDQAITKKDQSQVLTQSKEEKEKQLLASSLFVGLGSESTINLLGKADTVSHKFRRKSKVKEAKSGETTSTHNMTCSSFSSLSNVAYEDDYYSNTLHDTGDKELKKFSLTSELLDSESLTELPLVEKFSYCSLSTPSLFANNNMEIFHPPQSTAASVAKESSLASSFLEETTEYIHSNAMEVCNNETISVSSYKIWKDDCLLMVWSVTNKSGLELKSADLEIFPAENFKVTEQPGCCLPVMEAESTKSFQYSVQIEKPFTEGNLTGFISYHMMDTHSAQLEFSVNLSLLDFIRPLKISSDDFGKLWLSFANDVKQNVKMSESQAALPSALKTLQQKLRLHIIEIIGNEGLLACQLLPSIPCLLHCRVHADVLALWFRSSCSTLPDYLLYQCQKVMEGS
In short: as §1

B1: LZTR1 R810W-FLAG (other, human, UniProt Q8N653 1-840, looked up)
chain: MAGPGSTGGQIGAAALAGGARSKVAPSVDFDHSCSDSVEYLTLNFGPFETVHRWRRLPPCDEFVGARRSKHTVVAYKDAIYVFGGDNGKTMLNDLLRFDVKDCSWCRAFTTGTPPAPRYHHSAVVYGSSMFVFGGYTGDIYSNSNLKNKNDLFEYKFATGQWTEWKIEGRLPVARSAHGATVYSDKLWIFAGYDGNARLNDMWTIGLQDRELTCWEEVAQSGEIPPSCCNFPVAVCRDKMFVFSGQSGAKITNNLFQFEFKDKTWTRIPTEHLLRGSPPPPQRRYGHTMVAFDRHLYVFGGAADNTLPNELHCYDVDFQTWEVVQPSSDSEVGGAEVPERACASEEVPTLTYEERVGFKKSRDVFGLDFGTTSAKQPTQPASELPSGRLFHAAAVISDAMYIFGGTVDNNIRSGEMYRFQFSCYPKCTLHEDYGRLWESRQFCDVEFVLGEKEECVQGHVAIVTARSRWLRRKITQARERLAQKLEQEAAPVPREAPGVAAGGARPPLLHVAIREAEARPFEVLMQFLYTDKIKYPRKGHVEDVLLIMDVYKLALSFQLCRLEQLCRQYIEASVDLQNVLVVCESAARLQLSQLKEHCLNFVVKESHFNQVIMMKEFERLSSPLIVEIVRRKQQPPPRTPLDQPVDIGTSLIQDMKAYLEGAGAEFCDITLLLDGHPRPAHKAILAARSSYFEAMFRSFMPEDGQVNISIGEMVPSRQAFESMLRYIYYGEVNMPPEDSLYLFAAPYYYGFYNNRLQAYCKQNLEMNVTVQNVLQILEAADKTQALDMKRHCLHIIVHQFTKVSKLPTLWSLSQQLLLDIIDSLASHISDKQCAELGADI
notes: Stably expressed in U87 cells by lentivirus; also called LZTR1-FLAG-R810W; LZTR1 RW; not shown: FLAG tag
binding result (WDR6): binds | binding result (AP4E1): binds
